The source of these data is paper PMC7007523 (Proceedings of the National Academy of Sciences of the …, 2020).

Assay [1] deals with GSO1/SGN3 ectodomain (residues 19 to 870) (Arabidopsis) (UniProt C0LGQ5). As to the kind of experiment: ITC.
The target of assay [2] is SGN3^3xmut ectodomain (Tyr416, Phe438 and Tyr440 replaced by alanine) (Arabidopsis) (UniProt C0LGQ5). The assay is described as follows: grating-coupled interferometry.
In assay [3] the target is GSO1/SGN3 ectodomain (residues 19 to 870) (Arabidopsis) (UniProt C0LGQ5). The assay is described as follows: grating-coupled interferometry.
Assay [4] deals with GSO1/SGN3. The assay is described as follows: Binding of CIF2^Hyp69,71 to GSO1/SGN3. Details: species or system Arabidopsis. The following applies: SI Appendix, Fig. S6.
The target in assay [5] is GSO2 ectodomain (recombinant) (Arabidopsis) (UniProt Q9FIZ3). The assay is described as follows: grating-coupled interferometry.
GSO2 ectodomain (recombinant) (Arabidopsis), sequence (Q9FIZ3 23-876): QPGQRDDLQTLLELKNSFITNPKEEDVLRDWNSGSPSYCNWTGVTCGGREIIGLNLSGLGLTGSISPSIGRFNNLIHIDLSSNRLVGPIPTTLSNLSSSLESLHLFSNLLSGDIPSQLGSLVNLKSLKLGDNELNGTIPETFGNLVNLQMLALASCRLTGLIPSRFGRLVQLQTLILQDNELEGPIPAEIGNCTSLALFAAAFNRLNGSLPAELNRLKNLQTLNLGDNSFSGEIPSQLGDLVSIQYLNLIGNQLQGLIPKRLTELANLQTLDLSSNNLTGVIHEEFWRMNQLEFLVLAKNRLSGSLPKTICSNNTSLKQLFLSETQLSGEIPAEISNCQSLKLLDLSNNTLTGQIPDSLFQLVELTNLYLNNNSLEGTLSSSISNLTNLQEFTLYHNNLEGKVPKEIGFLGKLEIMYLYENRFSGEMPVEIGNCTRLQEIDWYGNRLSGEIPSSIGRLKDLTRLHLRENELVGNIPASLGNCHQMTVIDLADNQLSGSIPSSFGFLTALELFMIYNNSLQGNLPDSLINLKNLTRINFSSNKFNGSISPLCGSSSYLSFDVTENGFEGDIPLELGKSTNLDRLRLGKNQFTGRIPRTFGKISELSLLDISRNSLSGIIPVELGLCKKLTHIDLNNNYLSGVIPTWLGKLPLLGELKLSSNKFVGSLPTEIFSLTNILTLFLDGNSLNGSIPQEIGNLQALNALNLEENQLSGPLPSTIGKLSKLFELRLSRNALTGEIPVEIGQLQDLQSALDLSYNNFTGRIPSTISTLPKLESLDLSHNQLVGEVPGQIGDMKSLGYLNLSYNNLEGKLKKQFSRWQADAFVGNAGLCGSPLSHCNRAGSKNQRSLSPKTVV
The target of assay [6] is BAM1 ectodomain (Arabidopsis) (UniProt O49545). As to the kind of experiment: grating-coupled interferometry.
BAM1 ectodomain (Arabidopsis), sequence (O49545 20-640): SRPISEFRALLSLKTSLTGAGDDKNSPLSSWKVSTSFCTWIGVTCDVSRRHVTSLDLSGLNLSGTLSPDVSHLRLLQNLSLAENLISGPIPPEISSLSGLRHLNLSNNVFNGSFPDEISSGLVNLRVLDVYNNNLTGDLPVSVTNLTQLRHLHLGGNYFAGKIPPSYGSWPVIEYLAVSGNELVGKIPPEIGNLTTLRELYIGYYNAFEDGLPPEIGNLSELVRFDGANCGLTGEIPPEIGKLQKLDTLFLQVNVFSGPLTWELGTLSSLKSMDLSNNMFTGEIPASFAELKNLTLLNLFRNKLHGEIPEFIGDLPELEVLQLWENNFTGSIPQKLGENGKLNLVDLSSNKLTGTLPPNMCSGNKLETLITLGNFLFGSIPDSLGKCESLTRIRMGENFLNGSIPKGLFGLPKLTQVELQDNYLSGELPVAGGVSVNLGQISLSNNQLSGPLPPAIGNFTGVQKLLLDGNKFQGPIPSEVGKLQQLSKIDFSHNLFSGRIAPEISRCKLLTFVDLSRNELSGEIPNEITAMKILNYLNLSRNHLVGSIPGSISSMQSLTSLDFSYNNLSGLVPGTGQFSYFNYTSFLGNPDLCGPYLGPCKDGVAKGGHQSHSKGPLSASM
Assay [7] has as its target PEPR1 ectodomain (Arabidopsis) (UniProt Q9SSL9). The assay is described as follows: grating-coupled interferometry.
In assay [8] the test system is GSO1/SGN3 ectodomain (SGN3^WT) - CIF peptide. The following applies: CIF-dependent interaction.
Assay [9] concerns the target GSO2 in the presence of CIF3. As to the kind of experiment: GCI coreceptor assay, SERK1 and SERK3 vs GSO2 in the presence of CIF3. The following applies: read-out: Kd of SERK binding to GSO2. Details: species or system Arabidopsis.
The subject of assay [10] is EFR. As to the kind of experiment: GCI, SERK3 binding to EFR. Details: species or system Arabidopsis.
Assay [11] has as its system FLS2. The assay is described as follows: GCI, SERK3 binding to FLS2. Also noted: species or system Arabidopsis.
The target of assay [12] is FLS2 ectodomain (isolated) (Arabidopsis) (UniProt Q9FL28). The assay is described as follows: grating-coupled interferometry.
FLS2 ectodomain (isolated) (Arabidopsis), sequence (Q9FL28 24-806): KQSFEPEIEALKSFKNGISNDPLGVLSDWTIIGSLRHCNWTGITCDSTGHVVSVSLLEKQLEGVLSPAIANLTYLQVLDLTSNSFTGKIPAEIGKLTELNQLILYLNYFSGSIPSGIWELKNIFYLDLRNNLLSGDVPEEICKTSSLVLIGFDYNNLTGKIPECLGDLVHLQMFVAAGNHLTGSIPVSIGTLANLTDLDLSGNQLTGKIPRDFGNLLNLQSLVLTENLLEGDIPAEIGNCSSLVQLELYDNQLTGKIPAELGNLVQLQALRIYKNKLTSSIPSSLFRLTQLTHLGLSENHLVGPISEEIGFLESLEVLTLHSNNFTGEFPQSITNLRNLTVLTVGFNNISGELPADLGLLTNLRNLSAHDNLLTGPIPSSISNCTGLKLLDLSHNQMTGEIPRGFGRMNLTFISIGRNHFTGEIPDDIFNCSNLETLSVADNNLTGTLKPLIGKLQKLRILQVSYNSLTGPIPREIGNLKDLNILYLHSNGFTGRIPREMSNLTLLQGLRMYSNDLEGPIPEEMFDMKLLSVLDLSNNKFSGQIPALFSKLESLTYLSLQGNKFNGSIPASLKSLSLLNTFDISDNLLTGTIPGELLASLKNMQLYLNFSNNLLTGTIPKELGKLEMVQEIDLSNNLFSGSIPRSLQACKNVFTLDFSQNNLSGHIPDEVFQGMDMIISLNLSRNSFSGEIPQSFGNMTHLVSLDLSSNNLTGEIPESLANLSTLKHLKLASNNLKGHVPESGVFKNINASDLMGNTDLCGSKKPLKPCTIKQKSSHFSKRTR
Assay [13] deals with T1, GSO1/SGN3 ectodomain (SGN3^WT) - CIF peptide (Arabidopsis thaliana, UniProt C0LGQ5).
T1 sequence (C0LGQ5 19-870): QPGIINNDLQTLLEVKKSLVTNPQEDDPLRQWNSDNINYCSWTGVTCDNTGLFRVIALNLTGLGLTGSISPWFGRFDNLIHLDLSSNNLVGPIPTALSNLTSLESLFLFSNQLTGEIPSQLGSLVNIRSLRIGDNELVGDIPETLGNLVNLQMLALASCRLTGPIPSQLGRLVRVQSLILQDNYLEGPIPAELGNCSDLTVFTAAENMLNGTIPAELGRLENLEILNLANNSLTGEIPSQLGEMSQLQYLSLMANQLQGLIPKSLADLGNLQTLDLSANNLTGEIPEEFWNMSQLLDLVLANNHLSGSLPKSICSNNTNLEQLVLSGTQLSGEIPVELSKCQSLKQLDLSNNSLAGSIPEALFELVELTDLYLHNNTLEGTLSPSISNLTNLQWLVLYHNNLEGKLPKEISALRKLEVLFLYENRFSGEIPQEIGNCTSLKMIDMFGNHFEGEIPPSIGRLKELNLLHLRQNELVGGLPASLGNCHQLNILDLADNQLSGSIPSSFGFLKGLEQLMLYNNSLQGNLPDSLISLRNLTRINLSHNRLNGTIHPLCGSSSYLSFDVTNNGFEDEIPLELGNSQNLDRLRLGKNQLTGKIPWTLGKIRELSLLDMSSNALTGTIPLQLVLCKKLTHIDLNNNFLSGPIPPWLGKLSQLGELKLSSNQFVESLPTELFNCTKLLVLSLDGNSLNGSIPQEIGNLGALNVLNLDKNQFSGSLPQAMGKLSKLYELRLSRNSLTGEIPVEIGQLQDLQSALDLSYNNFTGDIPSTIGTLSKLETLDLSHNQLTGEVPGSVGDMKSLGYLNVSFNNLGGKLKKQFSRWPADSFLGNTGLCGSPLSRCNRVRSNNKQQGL
The following applies: in the absence of CIF peptide.

In assay [14] the target is FLS2 ectodomain (isolated) (Arabidopsis, UniProt Q9FL28 24-806). The assay is described as follows: grating-coupled interferometry.
FLS2 ectodomain (isolated), sequence (Q9FL28 24-806): as the sequence (Q9FL28 24-806) above

Non-standard residues stand in square brackets, D forms with d. No end group written: not given here. Hyp = O=C(O)[C@@H]1C[C@@H](O)CN1

PEPR1 ectodomain (Arabidopsis), sequence (Q9SSL9 29-769): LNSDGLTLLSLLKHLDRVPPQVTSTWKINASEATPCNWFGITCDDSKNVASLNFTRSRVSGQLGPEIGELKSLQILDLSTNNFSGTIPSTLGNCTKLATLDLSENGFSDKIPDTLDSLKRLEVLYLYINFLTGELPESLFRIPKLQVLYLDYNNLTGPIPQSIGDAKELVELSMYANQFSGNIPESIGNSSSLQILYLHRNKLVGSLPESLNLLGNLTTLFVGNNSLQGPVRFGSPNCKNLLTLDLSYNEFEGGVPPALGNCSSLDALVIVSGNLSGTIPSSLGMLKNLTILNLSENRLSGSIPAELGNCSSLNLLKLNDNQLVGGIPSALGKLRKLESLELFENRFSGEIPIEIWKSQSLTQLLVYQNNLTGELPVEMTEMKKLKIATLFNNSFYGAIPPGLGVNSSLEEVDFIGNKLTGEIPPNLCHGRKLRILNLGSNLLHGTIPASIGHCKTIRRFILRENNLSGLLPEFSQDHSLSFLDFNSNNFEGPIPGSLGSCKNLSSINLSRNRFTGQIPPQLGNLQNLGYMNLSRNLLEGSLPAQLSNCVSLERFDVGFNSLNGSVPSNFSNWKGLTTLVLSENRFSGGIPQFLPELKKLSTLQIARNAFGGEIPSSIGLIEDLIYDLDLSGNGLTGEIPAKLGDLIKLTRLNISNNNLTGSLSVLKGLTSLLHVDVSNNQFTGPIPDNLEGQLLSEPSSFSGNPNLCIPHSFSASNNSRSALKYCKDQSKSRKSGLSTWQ

For the molecule “CIF2 peptide, synthetic sTyr-containing (CIF2^WT) (from UniProt O65684 29-83)”, the Kd in assay [1] is 40 nM; in assay [3], 2 nM. The same molecule displayed a stoichiometry N in [1] of 1. In assay [2], this molecule showed a fold reduction of CIF2 binding against wild-type GSO1/SGN3 of 10 fold.
In the case of “CIF2^Hyp69,71: CIF2 with hydroxyprolines at positions 69 and 71 (GRSSILIYSQEDDHPEVVERRIHEHERILRMNSRDYGHSS[Hyp]K[Hyp]KLVRPPFKLIPN)”, the “dissociation constant compared with CIF2^WT” value in [4] is on record as “very similar dissociation constants”.
As to “CIF3 peptide, tyrosine sulfated (CIF3^WT)”, the dissociation constant Kd in [3] and in assay [5] was 4 nM each time.
In assay [1], CIF4 peptide (wild type) yielded an equilibrium dissociation constant (Kd) of 300 nM and a stoichiometry N of 1.
In assay [6], CLE9 peptide (12 amino acids) registered a dissociation constant Kd of 1 nM.
In the case of “PEP1 danger signal peptide (23 amino acids)”, the dissociation constant (Kd) in assay [7] came out at 100 nM.
Still for that read-out and setting: next, “PEP2 danger signal peptide (23 amino acids) (from UniProt Q9LV88 74-109)”: 20000 nM.
Take “SERK3: recombinant LRR ectodomain of the SERK3 coreceptor kinase”: the “interaction of coreceptor candidate with GSO1/SGN3 in GCI assays” value in [8] is “interacts”. Further, the equilibrium dissociation constant (Kd) in assay [9] fell in the range of 20 to 80 nM. Further, the “affinity of SERK3 binding” value in assay [10] and in assay [11] was “low micromolar affinity” throughout.
flg22 immune elicitor peptide: the Kd in assay [12] is 1500 nM.

B1: SERK1: recombinant LRR ectodomain of the SERK1 coreceptor kinase (residues 24 to 213) (protein)
chain: ASANLEGDALHTLRVTLVDPNNVLQSWDPTLVNPCTWFHVTCNNENSVIRVDLGNAELSGHLVPELGVLKNLQYLELYSNNITGPIPSNLGNLTNLVSLDLYLNSFSGPIPESLGKLSKLRFLRLNNNSLTGSIPMSLTNITTLQVLDLSNNRLSGSVPDNGSFSLFTPISFANNLDLCGPVTSHPCPGS
For the molecule B1, the “SERK1 binding to SGN3” value in assay [13] is listed as “No SERK1 binding”. For the same molecule, the equilibrium dissociation constant (Kd) in assay [9] was in the range of 20 to 80 nM.

B2: SERK3 LRR ectodomain (receptor, Arabidopsis, UniProt Q94F62 26-225, looked up)
chain: NAEGDALSALKNSLADPNKVLQSWDATLVTPCTWFHVTCNSDNSVTRVDLGNANLSGQLVMQLGQLPNLQYLELYSNNITGTIPEQLGNLTELVSLDLYLNNLSGPIPSTLGRLKKLRFLRLNNNSLSGEIPRSLTAVLTLQVLDLSNNPLTGDIPVNGSFSLFTPISFANTKLTPLPASPPPPISPTPPSPAGSNRITG
In the case of B2, the binding result in assay [14] is on record as “binds”.
